Consider six molecules from patent US20190322730A1.

Some targets named below: C3c (UniProt P01024); iC3b (UniProt P01024); C3b (human) (UniProt P01024).
Holding throughout (assay): binding screen of Example 5; method and unit not stated

Substitutions are numbered along the chain they refer to.

Sequence of C3b (human) (P01024 23-667 limits assumed, chain 1 of 2): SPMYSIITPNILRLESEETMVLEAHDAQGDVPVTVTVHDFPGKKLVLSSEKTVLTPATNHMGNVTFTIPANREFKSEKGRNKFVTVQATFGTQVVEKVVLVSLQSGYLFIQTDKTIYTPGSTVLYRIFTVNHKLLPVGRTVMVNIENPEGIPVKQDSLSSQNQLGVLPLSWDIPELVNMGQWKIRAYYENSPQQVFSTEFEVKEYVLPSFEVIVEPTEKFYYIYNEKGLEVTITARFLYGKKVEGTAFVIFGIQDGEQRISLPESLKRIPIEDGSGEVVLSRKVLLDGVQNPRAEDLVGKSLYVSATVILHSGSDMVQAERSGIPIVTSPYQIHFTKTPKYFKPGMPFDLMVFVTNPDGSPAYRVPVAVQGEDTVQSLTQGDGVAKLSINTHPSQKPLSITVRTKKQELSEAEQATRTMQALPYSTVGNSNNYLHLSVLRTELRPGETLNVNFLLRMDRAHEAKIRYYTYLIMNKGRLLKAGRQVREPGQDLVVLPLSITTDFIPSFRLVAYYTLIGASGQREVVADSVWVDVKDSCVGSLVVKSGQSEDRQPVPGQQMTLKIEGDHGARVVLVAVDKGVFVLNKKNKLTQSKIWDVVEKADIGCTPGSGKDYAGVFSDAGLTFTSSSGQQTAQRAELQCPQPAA
Sequence of C3b (human) (P01024 749-1663 limits assumed, chain 2 of 2): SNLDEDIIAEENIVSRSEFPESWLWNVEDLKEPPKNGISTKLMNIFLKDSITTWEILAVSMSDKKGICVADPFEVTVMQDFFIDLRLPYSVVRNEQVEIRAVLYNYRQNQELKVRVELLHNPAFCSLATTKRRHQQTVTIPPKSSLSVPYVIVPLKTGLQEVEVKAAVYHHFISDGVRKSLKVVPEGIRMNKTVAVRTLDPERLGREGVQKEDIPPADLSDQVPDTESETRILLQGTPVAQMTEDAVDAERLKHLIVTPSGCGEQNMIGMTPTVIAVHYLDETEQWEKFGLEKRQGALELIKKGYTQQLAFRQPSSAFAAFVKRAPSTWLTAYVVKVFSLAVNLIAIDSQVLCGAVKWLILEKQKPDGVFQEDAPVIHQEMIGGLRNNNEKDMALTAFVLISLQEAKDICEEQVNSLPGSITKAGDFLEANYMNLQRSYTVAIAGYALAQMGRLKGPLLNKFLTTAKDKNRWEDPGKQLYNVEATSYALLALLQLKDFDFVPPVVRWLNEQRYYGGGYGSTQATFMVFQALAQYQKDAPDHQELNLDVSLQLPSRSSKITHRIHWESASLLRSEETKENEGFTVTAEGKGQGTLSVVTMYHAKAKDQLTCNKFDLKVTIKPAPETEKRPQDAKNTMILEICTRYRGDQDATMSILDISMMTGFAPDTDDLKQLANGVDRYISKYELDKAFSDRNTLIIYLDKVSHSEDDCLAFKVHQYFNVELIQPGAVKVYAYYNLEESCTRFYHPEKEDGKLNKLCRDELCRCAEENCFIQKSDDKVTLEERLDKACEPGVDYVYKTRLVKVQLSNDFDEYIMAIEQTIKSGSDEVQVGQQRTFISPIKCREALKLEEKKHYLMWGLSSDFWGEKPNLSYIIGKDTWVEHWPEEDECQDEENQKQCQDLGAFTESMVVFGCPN

B1: antibody 62F2 (antibody, V domains shown)
VH: DVQLQESGPDLVKPSQSLSLTCTVTGYSITSGYSLHWIRQFPGNKLEWMGYIHYSGSTNYNPSLKSRISITRDTSKNQFFLKLNSVTSEDTATYHCARAWDYLDYWGQGTTLTVSS
VL: DIQMTQSPASLSASVGETVTITCRASENIYSQLAWYQQKQGKSPQLLVYDAKTLAEGVPSRFSGSGSDTQFSLKIISLQPEDFGRYYCHHHFGILYTFGGGTKLEMK
B1: the values for the binding relative to negative control mIgG2 in the assay with C3c and in the assay with iC3b were 0.43 and 0.49, respectively.

B2: antibody 3G8 (antibody, V domains shown)
VH: EIQLQQSGAELVKPGASVKISCMASGYSFTGYNMNWVKQSHGKGLEWIGNINPYYDSTSYNQKFKGKATLTVDKSSSTAYMQLNSLTSEDSAVYYCARENYDFVGFAYWGQGTLVTVSA
VL: QIVLSQSPAILSASPGEKVTMTCRASSSVSYMHWFQQKPGSSPKPWIYVTSNLASGVPPRFSGSGSGTSYSLTISRVEAEDAATYYCQQWSTNPLTFGAGTKLELK
As to B2, the binding relative to negative control mIgG2 was found to be 0.22 with C3c and 0.25 in the assay with iC3b.

B3: antibody 3D8 (antibody, V domains shown)
VH: EIQLQQSGAELVKPGASVKISCKASGYSFTGYNMNWVKQSHGKSLEWIGNINPYYGSTNYNQKFKGKATLTVDKSSTTAYMQLDSLTSEDSAVYYCARGYYGGNYPFAYWGQGTLVTVSA
VL: DIQMTQSPASLSASVGETVTITCRASENIYSYLAWYQQKQGKSPQLLVYNAKTLAEGVPSRFSGSGSGTQFSLKINSLQPEDFGSYYCQHYYGTPYTFGGGSKVEIK
In the case of B3, the binding relative to negative control mIgG2 with C3c turned out to be 0.17; with iC3b it was 0.29.

B4: antibody 63A3 (antibody, V domains shown)
VH: DVQLQESGPGLVKPSQSLSLTCSVTGYSITSGYYWNWIRQFPGNKLEWMGYIRYDGSNNYNPSLKNRISITRDTSKNQVFLKLNSVTPEDTATYYCARHYGYDGGAFDFWGQGTTLTVSS
VL: B3 VL with A25T, S31N, A34V, A55E, I75V, Y91H, Y96F, G100S, S102T, V104L
As to B4, the binding relative to negative control mIgG2 in the assay with C3c was 0.55; in the assay with iC3b, 0.72.

B5: antibody 38G10 (antibody, V domains shown)
VH: EVQLQQSGPELVKPGDSVKMSCKASGYTFTDFYMDWVKQSHGKSLEWIGYIYPHNGGTTYNQNFTGKATLTVDKSSNTAYMELHSLTSEDSAVYYCARRGGFDFDYWGQGTTLTVSS
VL: NIVMTQSPKSMSLSVGERVTLRCKASENVDTYVSWYQQKPEQSPKLLIYGASNRYTGVPDRFTGSGSATEFTLTISSVQAEDLVGYHCGQSHSYPLTFGAGTKLELK
On to B5, for which the binding relative to negative control mIgG2 with C3b (human) was found to be 0.06; with C3c, 0.13; with iC3b, 0.06.

B6: antibody 38F5 (antibody, V domains shown)
VH: EVMLVESGGALVKPGGSLKLSCTASGFTFSNYAMSWVRQTPEKRLEWVAQTISSGGRYTYYPDSVKGRFTISRDNARNTLYLQMSSLRSEDTAMYYCVRRYYGNSYWYFDVWGAGTTVTVSS
VL: DIVMTQSPSSLSVSAGEKVTMNCKSSQSLLNSGNQKHYLTWYQQKPGQPPKLLIYGASTRGSGVPDRFTGSGSGTDFTLTISSVQAEDLAVYYCQNDHSYPYTFGGGTKLEIK
Regarding B6, the binding relative to negative control mIgG2 with C3c and with iC3b was 0.45 throughout.
